Test results reported in publication PMC5333627.

Legend:
[1] = target: CbpE-Jo (S. pneumoniae); assay: confocal fluorescence microscopy of live cells; live pneumococcal cells expressing CbpE-Jo or CbpE-In incubated with exogenous His-GFP-In or PBS, extensive washes; mean maximal GFP intensity of five frames, autofluorescence subtracted
[2] = target: His-Jo (S. pneumoniae); assay: covalent complex formation seen by SDS-PAGE; Jo and In partners at 25 μM, pH 5, 20 °C, 60 min; proportion of complex normalised to 100%
[3] = target: His-Jo (S. pneumoniae); assay: covalent complex formation seen by SDS-PAGE; Jo and In partners at 25 μM, pH 6, 20 °C, 60 min; proportion of complex normalised to 100%
[4] = target: His-Jo (S. pneumoniae); assay: covalent complex formation seen by SDS-PAGE; Jo and In partners at 25 μM, pH 7, 20 °C, 60 min; proportion of complex normalised to 100%
[5] = target: His-Jo (S. pneumoniae); assay: covalent complex formation seen by SDS-PAGE; Jo and In partners at 25 μM, pH 8, 20 °C, 60 min; proportion of complex normalised to 100%
[6] = target: His-Jo (S. pneumoniae); assay: covalent complex formation seen by SDS-PAGE; 10 μM purified His-Jo and His-In, 50 mM Tris pH 8.0, 200 mM NaCl, 20 °C; 90 min; bands quantified with ImageJ
[7] = target: His-Jo (S. pneumoniae); assay: covalent complex formation seen by SDS-PAGE; 10 μM purified His-Jo and His-In, 50 mM Tris pH 8.0, 200 mM NaCl, 20 °C; 180 min; bands quantified with ImageJ
[8] = target: His-Jo (S. pneumoniae); assay: covalent complex formation seen by SDS-PAGE; His-Jo and In co-expressed in E. coli cytoplasm (pETDuet, IPTG 3 h at 37 °C); crude lysate on denaturing SDS-PAGE, Coomassie blue

Question: With His-GFP-In (domain or fragment) as the substance, how does the fluorescence signal of the cells (arbitrary units (AU)) [1] read?
Answer: 550

Question: Which results are given for His-In (domain or fragment)?
Answer: percent of complex reconstituted [2]: 18%; percent of complex reconstituted [3]: 90%; percent of complex reconstituted [4]: 100%; percent of complex reconstituted [5]: 100%; percent of complex reconstituted [6]: 60%; percent of complex reconstituted [7]: 100%

Question: In (domain or fragment) was tested. Which stoichiometry N [8] did it give?
Answer: 1
